Laboratory results: PMC9812585
One block for each substance: values may come before it.

Tests used:
[1] = target: human GC-A (membrane guanylate cyclase A, natriuretic peptide receptor) (human) (UniProt P16066)
[2] = target: human GC-B (membrane guanylate cyclase B, natriuretic peptide receptor) (human) (UniProt P20594)
[3] = target: human GC-A (membrane guanylate cyclase A, natriuretic peptide receptor) (human) (UniProt P16066); remark: listed apart in the source
[4] = target: human GC-B (membrane guanylate cyclase B, natriuretic peptide receptor) (human) (UniProt P20594); remark: listed apart in the source

Chain of UniProt P20594 (P20594 23-1047): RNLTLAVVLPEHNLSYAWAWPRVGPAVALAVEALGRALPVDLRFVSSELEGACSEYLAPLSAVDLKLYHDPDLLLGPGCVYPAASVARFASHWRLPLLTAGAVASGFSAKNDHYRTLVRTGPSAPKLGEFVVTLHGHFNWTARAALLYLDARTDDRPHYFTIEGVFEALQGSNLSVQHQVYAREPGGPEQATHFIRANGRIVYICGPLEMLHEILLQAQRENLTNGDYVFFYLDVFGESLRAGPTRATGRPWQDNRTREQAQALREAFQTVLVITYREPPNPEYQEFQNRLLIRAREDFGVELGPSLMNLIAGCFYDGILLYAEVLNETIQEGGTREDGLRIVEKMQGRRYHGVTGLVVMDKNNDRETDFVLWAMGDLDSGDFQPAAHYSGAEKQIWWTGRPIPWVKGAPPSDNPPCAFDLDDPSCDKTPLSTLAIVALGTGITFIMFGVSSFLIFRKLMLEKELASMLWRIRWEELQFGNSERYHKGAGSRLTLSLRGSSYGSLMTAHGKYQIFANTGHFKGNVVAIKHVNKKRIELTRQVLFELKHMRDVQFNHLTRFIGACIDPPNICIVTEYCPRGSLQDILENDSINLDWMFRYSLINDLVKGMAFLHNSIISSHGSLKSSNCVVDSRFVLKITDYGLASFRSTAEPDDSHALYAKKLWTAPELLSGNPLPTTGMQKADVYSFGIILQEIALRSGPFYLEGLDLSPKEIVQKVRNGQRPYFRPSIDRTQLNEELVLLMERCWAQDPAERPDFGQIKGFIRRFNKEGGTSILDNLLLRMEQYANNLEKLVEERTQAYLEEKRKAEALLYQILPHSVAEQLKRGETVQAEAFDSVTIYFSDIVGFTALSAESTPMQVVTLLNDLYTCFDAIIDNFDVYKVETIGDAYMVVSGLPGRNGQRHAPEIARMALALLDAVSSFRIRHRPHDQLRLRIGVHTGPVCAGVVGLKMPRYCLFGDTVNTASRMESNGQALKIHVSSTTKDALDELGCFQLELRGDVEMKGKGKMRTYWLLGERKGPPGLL
Chain of UniProt P16066 (P16066 33-1061): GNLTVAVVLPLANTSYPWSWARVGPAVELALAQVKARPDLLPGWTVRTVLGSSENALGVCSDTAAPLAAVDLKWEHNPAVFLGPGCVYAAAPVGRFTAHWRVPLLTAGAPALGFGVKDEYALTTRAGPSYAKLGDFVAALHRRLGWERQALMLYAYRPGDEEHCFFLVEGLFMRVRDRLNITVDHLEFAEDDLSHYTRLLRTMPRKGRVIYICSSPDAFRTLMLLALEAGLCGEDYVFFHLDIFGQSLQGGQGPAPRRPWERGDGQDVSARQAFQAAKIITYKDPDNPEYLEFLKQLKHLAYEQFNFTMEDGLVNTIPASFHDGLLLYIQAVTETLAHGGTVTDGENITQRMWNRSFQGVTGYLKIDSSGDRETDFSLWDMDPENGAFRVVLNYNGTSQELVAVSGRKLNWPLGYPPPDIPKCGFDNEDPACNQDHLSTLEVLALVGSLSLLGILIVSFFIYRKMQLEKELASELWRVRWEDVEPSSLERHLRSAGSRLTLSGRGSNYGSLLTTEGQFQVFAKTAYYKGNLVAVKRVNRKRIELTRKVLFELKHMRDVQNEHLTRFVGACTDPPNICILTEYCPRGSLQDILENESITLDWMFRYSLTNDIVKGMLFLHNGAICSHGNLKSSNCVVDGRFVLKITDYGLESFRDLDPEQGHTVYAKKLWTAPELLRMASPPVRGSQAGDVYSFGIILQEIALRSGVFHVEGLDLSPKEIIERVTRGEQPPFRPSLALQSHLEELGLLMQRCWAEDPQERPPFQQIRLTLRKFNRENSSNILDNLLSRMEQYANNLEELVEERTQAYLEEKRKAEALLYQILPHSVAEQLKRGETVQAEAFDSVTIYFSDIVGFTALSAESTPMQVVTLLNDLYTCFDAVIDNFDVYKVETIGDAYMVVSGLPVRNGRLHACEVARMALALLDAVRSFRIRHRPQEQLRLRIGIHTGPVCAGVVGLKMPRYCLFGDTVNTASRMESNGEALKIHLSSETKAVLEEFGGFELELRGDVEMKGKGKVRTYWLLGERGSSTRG

stimulation of cGMP production in HEK293T cell membranes with increasing ANP, saturation above 4 μM [1]: 10 fold
Substance: human atrial natriuretic factor (1-28) (peptide)

stimulation of cGMP production in HEK293T cell membranes with increasing CNP, saturation above 4 μM [2]: 10 fold
Substance: human c-type natriuretic peptide (1-53)

IC50 of inhibition of guanylate cyclase activity (cGMP synthesis) of GC-A in HEK293T cell membranes activated by 2 μM ANP, increasing RD3; inhibition not complete at 0.5-1 μM RD3 [3]: 24 nM
IC50 of inhibition of guanylate cyclase activity (cGMP synthesis) of GC-B in HEK293T cell membranes activated by 2 μM CNP, increasing RD3; inhibition not complete at 0.5-1 μM RD3 [4]: 29 nM
Substance: retinal degeneration protein 3 (RD3) (from UniProt Q7Z3Z2 1-195) (natural protein)
